Assay: yeast display, Sf9 membrane polyspecificity reagent, FACS + sequencing; frameworks hold sequencing errors
Procedure, shortened: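 A nanobody's polyreactivity label depends on the gate it was sorted from. Yeast display cells were stained with 10% biotinylated, detergent-solubilized Sf9 membrane reagent for 1 hour at 4 °C, enriched on streptavidin microbeads and sorted by FACS. The low and high (top ~1%) gates were set on anti-HA fluorescence for expression and streptavidin fluorescence for reagent binding.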

Row | Sequence | polyreactivity (PSR sort gate)
1 | QVQLVESAGGLVQEGGSLRLICAASARTIVIYSMGWYRQAPGKEREFVAAISRSGGSTYYADSVKGRFTISRDNQKNTVYLQMNSLQPVDTAVYYCNTRTPYWFKSDYWGQGTQVTVSS | low polyreactivity
2 | QVQLVESGGGLVQAGGSLRLSCAASGSIVNYNDMGCYRQAPGKERELVAAIDSSGTSTYYADSVKGRFTISRDNAKNTVYLQMNSLKPEDTAVYYCNADSSLGFGYWGQGTQVTVSS | low polyreactivity
3 | QVQLVESGGGLVQAGGSLRLSCAASGRTFYWNPMGWYRQAPGKERELVAAITRNGGSTYYADSVKGRFTISRDNAKNTVYLQMNSLKPEDTAVYYCAARKRYGAGYDYWGQGTQVTVSS | high polyreactivity
4 | QVQLVESGGGLVQAGGSLRLSCAASGSIFRKYAMGWYRQAPGKERELVAVITTDGSTNYADSVKGLFTISRDNAKNTVYLQMNSLKPEDTAVYYCNAVRSSIGTDNDYWGQGTQVTVSS | low polyreactivity
5 | QVQLEESGGGLLQAGGSLRLSCAASGSTFLRNAKGWYRQAPGKERELVATITISGGSTHYADSVKGRFTISRDNAKNTVYLPMNSLKPEDTAVYYCGTPRYPSYDYWGQGTQVTVSS | low polyreactivity
6 | QVQLVESGGGLVQAGGSLRLSCAASGITFPLYVMGWYRQAPGKERELVAAISASGGSTYADSVKGRFTISRDNAKNTVYLQMNSLKPEDTAVYYCNADVYVGYEYVYWGQGTQVTVSS | low polyreactivity
7 | QVQLVESGGGLVQAGGSLRLSCAASGSNFVTNAMGWYRQAPGKERELVAAISVSGGSTYYADSVKGRFTFSRDNAKNTVYLQMNSLKPEDTEVYYCAADGFIGCRHIYEYWGQGTQVTVSS | low polyreactivity
8 | QVQLVESGGGLVQAGGSLRLSCAASGSIFDPYAMGWYRQAPGKERELVAAITASGSSTYYADSVKGRFTISRDNAKNTVYLQMNSLIPEDTAVYYCAADRANWEYLLSCLGYDYWGQGTQVTVSS | low polyreactivity
9 | QVQLVESGGGLVQAGGSLRLSCAASGRTFAPYTMGWYRQAPGKERELVAVITRRDGRTYYADSVKGRFTISRDNAKNTVYLQMNSLKPEDTAVYYCCFFPADWYRPVRDLRTDSDYWGQGTQVTVSS | low polyreactivity
10 | QVQLVESGGGLVQAGGSLRLSCAASGSIFTRYAMGGYRQAPGKERELVAAITAGGSSPYYADSVKGRFTISRDNAKNTVYLQMNSLKPEDTAVYYCNAVWWHPTDYDYWGQGSQVTVSS | low polyreactivity
11 | QVQLVESGGGLVQAGGSLRLSCAASGSTFPYVMGWYRQAPGKERELVAAISWSGTSTYYADSVKGRFTISRDNAKNTVYLQMNSLKPEDTAVYYCNVVYRVVSPSGGGYWGQGTQVTVSS | high polyreactivity
12 | QVQLVESGGGLVQSGGSLRLSCAASGGIFRYYVMGWYRQAPGKERELVAPINSGGTTYYEDSVKGRFTISRDNAKNTVYLQMNSLKPEDTAVYFCAAYYAGFGYNYWGQGTQVTVSS | low polyreactivity
13 | QVQLVESGGCLVQAGGSRRLSCAASGLTIYHYAMGWYRQATGKERELVAAITNGYSTYYADSVKGRFTISLDNAMNTVYLQMNSLKPEDTAVYSCNADQPGDQHSGYWGQGTQVTVSS | low polyreactivity
14 | EEELVESGGGLVQAGGSLRLSCAASGSTFLVYAMGWYRQAPGKERELVAVITYSTVRTYYADSVKGRFTISRDNAKNTVYLQMNSLKPEDTAVYYCNADKEYAVLGQGMDYWGQGTQVSVSS | low polyreactivity
15 | QVQLVESGGGIVQAGRSLRLSCAASGRTFYYYVMGWYRQAPGKERELVAAISRGGRTYYADSVKGRFTISRDNAKNTVYLQMNSLKPEDTAVYYCNAVPRKSRHRYDYWGQGSQVTVSS | high polyreactivity
16 | QVQLVESGGGLVQAGGSLRLSCAASGSTFGWYALGWYRQAPGKERELVAAIRSNGGSTYYADSVKGRFTLSRDNAKNTVYLQINSLKPEDTAVYYCAARGSPSKHHWYDYWGQGTQVTVSS | low polyreactivity

Row | Sequence | polyreactivity (PSR sort gate)
17 | QVQLVESGGGLVQAGGSLRLSCAASGRIFSVYTMGWYRQAPGKERELVATISSGGRTNYADSVKGRFTISRDNAKNTVYLQMNSLKPEDTAVYYCAAVPYGFVGYDDYWGQGTQVTVSS | low polyreactivity
18 | QVQLVESGGGLVQAGGSLRLSCAASGFTFVYYVMGWYRQAPGKERELVAAINAGGGSTYYADSVKGRFTISRDNAKNTVYLQMNSLKPEDTAVYYCNARVRVRLGRNWSSYYYWGQGTQVTVSS | high polyreactivity
19 | QVQLVESGGGLVQAGGSLRLSCAASGIIFVTNDMGWYRQAPGKERELVATITWSGGSTYYADSVKGRFTISRDNAKNTVYLQMNSLKPEDSAVYYCAAESRYTWIHSRDYWGQGTQVTVSS | low polyreactivity
20 | QVQLVESVGGLVQAGGSLRLSCAASGRTISRNAMGWYRQAPGKERELVAAISASGGRTYYADSVKGRFTISRDNAKNTVYLQMKSLKPEDTEVYFCAASTTGYRYYDYCGQGTQVTVSS | high polyreactivity
21 | QVQLVESGGGLVQAGGSLRLSCAASGSTFGLNAMGWYRQAPGKERELVAAISYSDTTTYYADSVKGRFTISRDNAKNTVYLQMNSLKPEDTAVYYCAAEGDYAFLYDYWGQGTQVTVSS | high polyreactivity
22 | QVQLVESGGGLVQAGGSLRLSCAASGIIFRYYAMGWYRQAPGKERELVAGITSNGGSTYYADSVKGRFTISRDNAKNTVYLQMNSLKPVDTAVYYCAAVSLYVWWALEYWGQGTQVTVSS | high polyreactivity
23 | QVQLVESGGGLVQAGGSLRLSCAASGFIFGANAMGWYRPAPGKESELVAAISWNGGRTYYADSVKWRFTISRDNAKNTVYLQMNSLKPEDTAVSYCAATGWYGLPTSYRVNYWGQGTQVTVSS | high polyreactivity
24 | QVQLVESGGGLDQAGGRLRLSCAAYGSTFELYAMGWYRQAPGKERELVASITGDSTNYADSVKGRFTISRDNAKNTVYLQMNSLKPEDTAVYYCAAEYVPYYEYESWGQGTQVTVSS | low polyreactivity
25 | QVQLLESGGGLVQAGGSLRLSCAASGRIFVYYAMGLYRKAPGKERELVATITFGGGSTYYADSVKGRFTISRDNAKNNVYLQMNSLKQEDTAVYYCNAPGFAWYTTKYDYCGQGTQVTVSS | low polyreactivity
26 | QVQLGESGGGLVQAGGSLRLSCAASGRIFNVYAMGWYRQAPGKERELVAAISTGSPTYYADSVKGRFTISRDNAKNTVYLQMNSLKPEDTAVYYCATGYIHGDYWSFRHQYYYWGQGTQVTVSS | low polyreactivity
27 | QVQLVESGGGLVQAGGSLRLSCAASGSTFTLNAMGWYRQAPGKERELVAAITTSGGSTYYADSVKGRFTISRDNAKNTVYLQMNSLKPEDTAVYYCNADGPWREVERPFRKEGNYWGQGTQVTVSS | low polyreactivity
28 | QVQLVESGGGLVQAGGSLRLSCAASGRIFRPNTMGWYRQAPGKERELVASISLSAGSTYYADSVKGRFTISRDNAKNTVFLQMNSLKPEDTAVYYCNATYLSWYRYKYNYWGQGTQVTVSS | low polyreactivity
29 | QVQLVESGGGLVQAGGSLRLSCAASGRISSYYVMGWYRQAPGKERELVAAITGGDSTNYADSVKGRFTISRDNAKNTVYLQMNSLKPEDTAVYYCNAYYWYLDDYWGQGSQVTVSS | high polyreactivity
30 | QVQLVETGGGLVQAGGSLRLSCAASGRTYVYNAMGWYRQAPGKERELVAAIDGGGDRTYYADSVKGRFTISRDNAKNTVYLQMNSLKPEDTAVYYCARDPGDTYYYSYQEGDYWGQGTQVTVSS | low polyreactivity
31 | HVQLVESGGGLVQAGGSLRLSCAASGRIFGVYVMGWYRPAPGKERELVAGISPSGGSTYYADSVKGRFTISRDNAKNTVYLQMNSLKPEDTAVYYCAAVLRIRRPRYGYWGQGTQVTVSS | high polyreactivity
32 | QVQLVESGGGLVQAGGSLRLSCAASGFTFVAYAMGWYRQAPGKERELVAAISRRGGPTYYADSVKGRFTISRDNAKYTVYLQMNSLKAEDTAVYYCAAGWKAFDQRRTGRLIRLLGQGTQVTVSS | high polyreactivity

Reference: the nanobody polyreactivity screen of Harvey et al. (2022)
